Allo-stimulatory capacity of CD1a+ DC in a mixed lymphocyte reaction (MLR) data for one substance are collected here from US7262274.

A value given as a limit tells only on which side of the number the result lay.

In the assay the target is human RANK, full length (expressed in or on cells) (human) (UniProt Q9Y6Q6). Description: cell-based or functional assay.
Sequence of UniProt Q9Y6Q6 (Q9Y6Q6 30-616 limits assumed): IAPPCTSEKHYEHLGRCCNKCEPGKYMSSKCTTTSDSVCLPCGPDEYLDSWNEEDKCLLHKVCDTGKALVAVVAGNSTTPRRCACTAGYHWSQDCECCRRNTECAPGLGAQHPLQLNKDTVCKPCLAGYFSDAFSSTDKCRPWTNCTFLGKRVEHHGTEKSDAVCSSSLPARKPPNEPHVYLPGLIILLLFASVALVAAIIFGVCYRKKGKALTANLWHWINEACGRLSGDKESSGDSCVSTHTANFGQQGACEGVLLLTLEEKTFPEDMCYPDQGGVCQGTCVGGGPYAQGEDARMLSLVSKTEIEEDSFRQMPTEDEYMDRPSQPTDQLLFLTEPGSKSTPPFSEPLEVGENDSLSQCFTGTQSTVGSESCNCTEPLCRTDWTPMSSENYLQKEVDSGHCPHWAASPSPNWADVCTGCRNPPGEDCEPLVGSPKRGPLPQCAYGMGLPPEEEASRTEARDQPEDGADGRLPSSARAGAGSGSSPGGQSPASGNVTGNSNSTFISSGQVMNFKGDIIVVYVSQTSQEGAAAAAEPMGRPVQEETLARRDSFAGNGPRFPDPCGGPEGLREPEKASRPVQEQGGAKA

“RANKL (species and construct not stated at the place of use) (ligand)”: the allo-stimulatory capacity of CD1a+ DC in a mixed lymphocyte reaction (MLR) was more than 10 fold.
